{"source": "patent US8445246B2", "about": "“Flavin-binding glucose dehydrogenases” (Kikkoman Corporation, priority 2009, dated 2013)", "molecules": {"B1": {"name": "Aspergillus niger-derived GOD: commercially available glucose oxidase derived from Aspergillus niger (GOD, product of Biozyme Laboratories) (protein, UniProt P13006 17-605, looked up)", "Glucose oxidase": "LPHYIRSNGIEASLLTDPKDVSGRTVDYIIAGGGLTGLTTAARLTENPNISVLVIESGSYESDRGPIIEDLNAYGDIFGSSVDHAYETVELATNNQTALIRSGNGLGGSTLVNGGTWTRPHKAQVDSWETVFGNEGWNWDNVAAYSLQAERARAPNAKQIAAGHYFNASCHGVNGTVHAGPRDTGDDYSPIVKALMSAVEDRGVPTKKDFGCGDPHGVSMFPNTLHEDQVRSDAAREWLLPNYQRPNLQVLTGQYVGKVLLSQNGTTPRAVGVEFGTHKGNTHNVYAKHEVLLAAGSAVSPTILEYSGIGMKSILEPLGIDTVVDLPVGLNLQDQTTATVRSRITSAGAGQGQAAWFATFNETFGDYSEKAHELLNTKLEQWAEEAVARGGFHNTTALLIQYENYRDWIVNHNVAYSELFLDTAGVASFDVWDLLPFTRGYVHILDKDPYLHHFAYDPQYFLNELDLLGQAAATQLARNISNSGAMQTYFAGETIPGDNLAYDADLSAWTEYIPYHFRPNYHGVGTCSMMPKEMGGVVDNAARVYGVQGLRVIDGSIPPTQMSSHVMTVFYAMALKISDAILEDYASMQ"}}, "key": {"[1]": {"assay": "GDH activity measurement (PMS/DCIP, absorbance at 600 nm)", "format": "biochemical", "conditions": "purified enzymes / commercial GOD", "description": "Specifically, the activity of the flavin-binding GDH is measured in the following manner, according to the invention. A mixture of 1.79 mL of 100 mM phosphate buffer (pH 7.0), 0.08 mL of a 1.25 M D-glucose solution and 0.01 mL of a 20 mM DCIP solution is warmed at 37° C. for 5 minutes. Next, 0.02 mL of a 20 mM PMS solution and 0.1 mL of an enzyme sample solution are added, and reaction is initiated. The absorbance is measured at the start of the reaction and periodically thereafter, the reduction in absorbance at 600 nm per minute (ΔA600) as the enzyme reaction proceeds is determined, and the flavin-binding GDH activity is calculated by the following formula. […]\nThe value of 2.0 in the formula is the liquid volume (mL) of reaction reagent+enzyme reagent, 16.3 is the millimolar molecular absorption coefficient (cm^2/μmol) under the activity measuring conditions, 0.1 is the liquid volume (mL) of the enzyme solution, 1.0 is the optical path length (cm) of the cell, ΔA600blank is the reduction in absorbance at 600 nm per minute, when the reaction is initiated by addition of 10 mM acetate buffer instead of the enzyme sample solution, and df represents the degree of dilution.\nEach solution was combined by the procedure described below, and the absorbance was measured to determine the GDH activity of the crude enzyme solution. […]"}, "[2]": {"assay": "GOD activity measurement (4-AA/TOOS/POD, absorbance at 555 nm)", "format": "biochemical", "conditions": "131 mM D-glucose, 37° C.", "description": "The GDH activity was measured according to the method of Example 1, and GOD activity was measured by the following method using 4-aminoantipyrine (4-AA) and N-ethyl-N-(2-hydroxy-3-sulfopropyl)-3-methylaniline (TOOS). After mixing 30.0 mL of 100 mM phosphate buffer (pH 7.0), 6.0 mL of an 833 mM D-glucose solution, 0.3 mL of a 25 mM 4-AA solution, 0.3 mL of a 40 mM TOOS solution and 0.3 mL of a 500 U/mL, POD solution, 3.0 mL of the mixture was transferred to a test tube and warmed at 37° C. for 5 minutes, after which 0.1 mL of enzyme sample solution was added and reaction was initiated. The increase in absorbance at 555 nm per minute (ΔA555) was measured as the enzyme reaction proceeded, and the GOD activity was calculated by the formula shown below. […]\nThe value of 3.1 in the formula is the liquid volume (mL) of reaction reagents+enzyme reagent, 32.8 is the millimolar molecular absorption coefficient (cm^2/μmol) under the activity measuring conditions, 0.5 is the number of molecules of quinoneimine dye produced when 1 molecule of H2O2 is reduced, 0.1 is the liquid volume (mL) of the enzyme solution, 1.0 is the optical path length (cm) of the cell, ΔA555blank is the increase in absorbance at 555 nm per minute, when the reaction is initiated by addition of 10 mM acetate buffer instead of the enzyme sample solution, and df represents the degree of dilution."}}, "data": [{"molecule": "B1", "values": [{"measurement": "GDH activity", "setting": "[1]", "value": 3.50, "unit": "U/mL"}, {"measurement": "GOD activity", "setting": "[2]", "value": 9.38, "unit": "U/mL"}]}]}
